From publication PMC8017705 (Proceedings of the National Academy of Sciences of the …, 2021)
The star is where a group is joined. Biotin = O=C1N[C@H]2[C@H](CS[C@H]2CCCCC(=O)*)N1

Target: T1, human RORγt ligand binding domain (residues 265 to 518) with an N-terminal His6-tag (human, UniProt P51449-1 265-518)
T1 sequence (looked up): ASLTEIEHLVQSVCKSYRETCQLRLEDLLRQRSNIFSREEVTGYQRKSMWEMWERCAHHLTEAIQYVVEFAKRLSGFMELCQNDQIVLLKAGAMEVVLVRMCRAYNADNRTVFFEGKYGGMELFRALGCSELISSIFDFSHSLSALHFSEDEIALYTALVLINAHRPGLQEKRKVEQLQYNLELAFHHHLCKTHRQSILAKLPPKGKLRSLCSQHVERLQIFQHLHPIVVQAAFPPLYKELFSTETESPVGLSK
Experiment: AlphaScreen or HTRF

B1: N-terminal biotinylated SRC-1 box2 peptide (peptide)
peptide: Biotin-PSSHSSLTARHKILHRLLQEGSPSD-NH2
SMILES: CC[C@H](C)[C@H](NC(=O)[C@H](CCCCN)NC(=O)[C@H](Cc1c[nH]cn1)NC(=O)[C@H](CCCNC(=N)N)NC(=O)[C@H](C)NC(=O)[C@@H](NC(=O)[C@H](CC(C)C)NC(=O)[C@H](CO)NC(=O)[C@H](CO)NC(=O)[C@H](Cc1c[nH]cn1)NC(=O)[C@H](CO)NC(=O)[C@H](CO)NC(=O)[C@@H]1CCCN1C(=O)CCCC[C@@H]1SC[C@@H]2NC(=O)N[C@@H]21)[C@@H](C)O)C(=O)N[C@@H](CC(C)C)C(=O)N[C@@H](Cc1c[nH]cn1)C(=O)N[C@@H](CCCNC(=N)N)C(=O)N[C@@H](CC(C)C)C(=O)N[C@@H](CC(C)C)C(=O)N[C@@H](CCC(N)=O)C(=O)N[C@@H](CCC(=O)O)C(=O)NCC(=O)N[C@@H](CO)C(=O)N1CCC[C@H]1C(=O)N[C@@H](CO)C(=O)N[C@@H](CC(=O)O)C(N)=O
binding result: binds
